The source of these data is PMC3324987 (Frontiers in Molecular Neuroscience, 2012).

The test system of one assay is apo-CaBP1. Description: ITC and HSQC of NSCaTE binding to apo-CaBP1. On the set-up: species or system human. As to conditions: ITC and NMR, compared to Ca^2+-CaBP1.
Assay [1] has as its target C-lobe of calmodulin (residues 78-148) (UniProt P0DP23 79-149). The experiment in a line: other fluorescence titration.
Assay [2] has as its target N-lobe of calmodulin (residues 1-77) (UniProt P0DP23 2-78). The experiment in a line: other fluorescence titration.

On to “long NSCaTE peptide: biosynthetically produced N-terminal region of Cav1.2 (residues 1–68), expressed in E. coli”, for which, in the assay on apo-CaBP1, the “binding to apo-CaBP1” value is on record as “extremely weak”.

B1: long NSCaTE peptide, Cav1.2 N-terminal cytoplasmic region residues 1-68 (domain or fragment)
chain: MVNENTRMYIPEENHQGSNYGSPRPAHANMNANAAAGLAPEHIPTPGAALSWQAAIDAARQAKLMGSA
For the molecule B1, the Ka stood at 232000 M⁻¹ in assay [1] and 1.39e+06 M⁻¹ in assay [2].
